Reference: patent publication US20140370558

Tests used:
Assay in all cases: cell_activity
[1] = system: FAD2_T02_Left_C11 TALEN monomer (synthetic (TAL effector-nuclease fusion)?); conditions: yeast reporter; value of pair with T01_Right_C11 on Target 2
[2] = system: FAD2_T02_Left_C40 TALEN monomer (synthetic (TAL effector-nuclease fusion)?); conditions: yeast reporter; value of pair with T01_Right_C40 on Target 2
[3] = system: FAD2_T01_Left_C11 + FAD2_T01_Right_C11 TALEN pair; conditions: yeast reporter cleavage
[4] = system: FAD2_T01_Left_C40 + FAD2_T01_Right_C40 TALEN pair; conditions: yeast reporter cleavage
[5] = system: FAD2_T02_Left_C11 + FAD2_T01_Right_C11 TALEN pair; conditions: yeast reporter cleavage
[6] = system: FAD2_T02_Left_C40 + FAD2_T01_Right_C40 TALEN pair; conditions: yeast reporter cleavage
[7] = system: FAD2_T03_Left_C11 + FAD2_T03_Right_C11 TALEN pair; conditions: yeast reporter cleavage
[8] = system: FAD2_T03_Left_C40 + FAD2_T03_Right_C40 TALEN pair; conditions: yeast reporter cleavage
[9] = system: FAD2_T04_Left_C11 + FAD2_T03_Right_C11 TALEN pair; conditions: yeast reporter cleavage
[10] = system: FAD2_T04_Left_C40 + FAD2_T03_Right_C40 TALEN pair; conditions: yeast reporter cleavage
[11] = system: FAD2_T03_Right_C11 TALEN monomer (synthetic (TAL effector-nuclease fusion)?); conditions: yeast reporter; value of pair with T03_Left_C11 on Target 3
[12] = system: FAD2_T03_Right_C40 TALEN monomer (synthetic (TAL effector-nuclease fusion)?); conditions: yeast reporter; value of pair with T03_Left_C40 on Target 3
[13] = system: FAD2_T01_Right_C11 TALEN monomer (synthetic (TAL effector-nuclease fusion)?); conditions: yeast reporter; value of pair with T01_Left_C11 on Target 1
[14] = system: FAD2_T01_Right_C40 TALEN monomer (synthetic (TAL effector-nuclease fusion)?); conditions: yeast reporter; value of pair with T01_Left_C40 on Target 1
[15] = system: FAD2_T04_Left_C11 TALEN monomer (synthetic (TAL effector-nuclease fusion)?); conditions: yeast reporter; value of pair with T03_Right_C11 on Target 4
[16] = system: FAD2_T04_Left_C40 TALEN monomer (synthetic (TAL effector-nuclease fusion)?); conditions: yeast reporter; value of pair with T03_Right_C40 on Target 4
[17] = system: FAD2_T03_Left_C11 TALEN monomer (synthetic (TAL effector-nuclease fusion)?); conditions: yeast reporter; value of pair with T03_Right_C11 on Target 3
[18] = system: FAD2_T03_Left_C40 TALEN monomer (synthetic (TAL effector-nuclease fusion)?); conditions: yeast reporter; value of pair with T03_Right_C40 on Target 3
[19] = system: FAD2_T01_Left_C11 TALEN monomer (synthetic (TAL effector-nuclease fusion)?); conditions: yeast reporter; value of pair with T01_Right_C11 on Target 1
[20] = system: FAD2_T01_Left_C40 TALEN monomer (synthetic (TAL effector-nuclease fusion)?); conditions: yeast reporter; value of pair with T01_Right_C40 on Target 1
[21] = left site truncated in Target 3
[22] = left site truncated in Target 1

Row | Sequence | activity (relative to I-SceI) [3] | activity (relative to I-SceI) [4] | activity (relative to I-SceI) [5] | activity (relative to I-SceI) [6] | activity (relative to I-SceI) [7] | activity (relative to I-SceI) [8] | activity (relative to I-SceI) [9] | activity (relative to I-SceI) [10] | further results
1 | ACATTGCCACCACCTACTTCCACCT (double strand) [FAD2_T02 left half-site] |  |  |  |  |  |  |  |  | activity (relative to I-SceI) [1]: 0.97; activity (relative to I-SceI) [2]: 0.96
2 | ACATTGCCACCACCTACTTCCACCTCCTTCCTCAACCCTTTTCCCTCATTGCATGGCCAATCT (double strand) [FAD2 Target 2] | 0.87 | 0.73 | 0.97 | 0.96 | 0 | 0 | 0 | 0 | 
3 | ACCGTGATGAAGTGTTTGTCCC (double strand) [FAD2_T03/T04 right half-site] |  |  |  |  |  |  |  |  | activity (relative to I-SceI) [11]: 0.65; activity (relative to I-SceI) [12]: 0.63
4 | ATTGCATGGCCAATCT (double strand) [FAD2_T01/T02 right half-site] |  |  |  |  |  |  |  |  | activity (relative to I-SceI) [13]: 0.73; activity (relative to I-SceI) [14]: 0.79
5 | ATTTCTCATGGAAAATAAGCCAT (double strand) [FAD2_T04 left half-site] |  |  |  |  |  |  |  |  | activity (relative to I-SceI) [15]: 0.54; activity (relative to I-SceI) [16]: 0.52
6 | ATTTCTCATGGAAAATAAGCCATCGCCGCCATCACTCCAACACAGGTTCCCTTGACCGTGATGAAGTGTTTGTCCC (double strand) [FAD2 Target 4] | 0 | 0 | 0 | 0 | 0.53 | 0.51 | 0.54 | 0.52 | 
7 | CTCATGGAAAATAAGCCAT (double strand) [FAD2_T03 left half-site] |  |  |  |  |  |  |  |  | activity (relative to I-SceI) [17]: 0.65; activity (relative to I-SceI) [18]: 0.63
8 | CTCATGGAAAATAAGCCATCGCCGCCATCACTCCAACACAGGTTCCCTTGACCGTGATGAAGTGTTTGTCCC (double strand) [FAD2 Target 3] | 0 | 0 | 0 | 0 | 0.65 | 0.63 |  |  | activity (relative to I-SceI) [9, 21]: 0; activity (relative to I-SceI) [10, 21]: 0
9 | GCCACCACCTACTTCCACCTCCT (double strand) [FAD2_T01 left half-site] |  |  |  |  |  |  |  |  | activity (relative to I-SceI) [19]: 0.73; activity (relative to I-SceI) [20]: 0.79
10 | GCCACCACCTACTTCCACCTCCTTCCTCAACCCTTTTCCCTCATTGCATGGCCAATCT (double strand) [FAD2 Target 1] | 0.73 | 0.79 |  |  | 0 | 0 | 0 | 0 | activity (relative to I-SceI) [5, 22]: 0; activity (relative to I-SceI) [6, 22]: 0
